The text below walks through data of article PMC4560413, “Ethyl Pyruvate Emerges as a Safe and Fast Acting Agent against Trypanosoma brucei by Targeting Pyruvate Kinase Activity” (PLoS ONE, 2015).

This data set deals with C=C(OP(=O)(O)O)C(=O)O. The data set can be described thus: purified protein. As to conditions: Mg2+.

Chain of pyruvate kinase (PK-1 from rabbit muscle) (Oryctolagus cuniculus) (chain, as listed by the source): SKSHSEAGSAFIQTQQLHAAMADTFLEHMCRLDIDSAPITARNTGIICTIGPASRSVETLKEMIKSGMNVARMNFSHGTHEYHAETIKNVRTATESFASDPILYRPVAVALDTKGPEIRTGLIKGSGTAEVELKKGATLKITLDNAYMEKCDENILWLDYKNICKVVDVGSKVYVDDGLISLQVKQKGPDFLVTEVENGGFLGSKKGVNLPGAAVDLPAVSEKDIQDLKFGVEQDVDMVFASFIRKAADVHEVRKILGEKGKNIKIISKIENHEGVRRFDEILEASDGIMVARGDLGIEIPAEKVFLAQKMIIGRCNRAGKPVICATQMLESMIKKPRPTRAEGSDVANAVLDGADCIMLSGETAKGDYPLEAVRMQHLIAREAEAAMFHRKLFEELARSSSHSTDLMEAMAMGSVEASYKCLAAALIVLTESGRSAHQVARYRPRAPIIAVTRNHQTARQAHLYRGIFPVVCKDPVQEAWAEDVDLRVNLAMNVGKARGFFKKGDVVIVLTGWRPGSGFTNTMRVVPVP

The term Km denotes the concentration of substrate that gives half-maximal velocity. Consider “pyruvate kinase (PK-1 from rabbit muscle) (Oryctolagus cuniculus)”, for which the Km is 220 ± 20 µM.
